Source: paper PMC3376577, “A Reusable Impedimetric Aptasensor for Detection of Thrombin Employing a Graphite-Epoxy Composite Electrode”

Experiments:
thrombin = thrombin (UniProt P00734;P00734 328-363;364-622); assay: electrochemical impedance spectroscopy; linear response 7.5-75 pM, detection limit 4.5 pM; PEG-blocked electrode, [Fe(CN)6]3-/4- probe; complex broken by 2.0 M NaCl at 42 C; PBS (187 mM NaCl, 2.7 mM KCl, 8.1 mM Na2HPO4, 1.76 mM KH2PO4, pH 7.0), room temperature; aptamer 1 uM adsorbed on graphite-epoxy electrode, PEG blocking
serum albumin = serum albumin (UniProt P02768 25-609); assay: electrochemical impedance spectroscopy; albumin 5,000 mg/dL; Rct did not increase (slight decrease); PBS (187 mM NaCl, 2.7 mM KCl, 8.1 mM Na2HPO4, 1.76 mM KH2PO4, pH 7.0), room temperature; aptamer 1 uM adsorbed on graphite-epoxy electrode, PEG blocking; conditions: G-quadruplex (quadriplex)
Sequence of serum albumin (P02768 25-609): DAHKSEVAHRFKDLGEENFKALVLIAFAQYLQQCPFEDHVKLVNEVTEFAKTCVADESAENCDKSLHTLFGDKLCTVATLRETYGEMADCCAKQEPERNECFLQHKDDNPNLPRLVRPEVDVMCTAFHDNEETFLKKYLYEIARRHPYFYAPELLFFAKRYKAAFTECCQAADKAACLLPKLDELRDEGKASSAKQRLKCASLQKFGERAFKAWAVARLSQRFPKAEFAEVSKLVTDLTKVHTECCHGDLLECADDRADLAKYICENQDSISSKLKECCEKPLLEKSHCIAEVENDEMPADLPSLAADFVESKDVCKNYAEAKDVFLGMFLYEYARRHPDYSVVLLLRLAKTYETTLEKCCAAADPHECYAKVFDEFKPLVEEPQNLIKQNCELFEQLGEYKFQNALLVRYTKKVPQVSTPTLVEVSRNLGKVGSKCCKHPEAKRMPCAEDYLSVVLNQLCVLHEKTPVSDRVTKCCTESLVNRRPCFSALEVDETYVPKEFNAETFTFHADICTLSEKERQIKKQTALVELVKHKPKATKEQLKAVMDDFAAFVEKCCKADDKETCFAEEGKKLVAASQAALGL

GGTTGGTGTGGTTGG (structured_DNA) [AptThr]
binding result (thrombin): binds
binding result (serum albumin): no binding
